Source: publication PMC8324831 (2021)
Where a chain is given by its changes, count along the chain named.

B1: sybody MR4 (VHH)
VHH: QVQLVESGGGLVQAGGSLRLSCAASGFPMYAWEMAWYRQAPGKEREWVAAIRSMGVHTHYSDSVKGRFTISRDNAKNTVYLQMNSLKPEDTAVYYCNVKDFGGHQAYYDYWGQGTQVTVS
B2: sybody MR17 (VHH)
VHH: QVQLVESGGGLVQAGGSLRLSCAASGFPVEVWRMEWYRQAPGKEREGVAAIESYGHGTRYADSVKGRFTISRDNAKNTVYLQMNSLKPEDTAVYYCNVKDDGQLAYHYDYWGQGTQVTVS
modifications: biotin by an amine-reactive crosslinker (only where immobilised on the SA sensor)
B3: sybody SR4 (VHH)
VHH: QVQLVESGGGLVQAGGSLRLSCAASGFPVYSWNMWWYRQAPGKEREWVAAIESHGDSTRYADSVKGRFTISRDNAKNTVYLQMNSLKPEDTAVYYCYVWVGHTYYGQGTQVTVS
modifications: biotin by an amine-reactive crosslinker (only where immobilised on the SA sensor)
B4: sybody LR1 (VHH)
VHH: QVQLVESGGGSVQAGGSLRLSCAASGSISSITYLGWFRQAPGKEREGVAALITDSGRTYYADSVKGRFTVSLDNAKNTVYLQMNSLKPEDTALYYCAAAEWGYEWPLYYASSWYWGQGTQVTVS
B5: sybody LR5 (VHH)
VHH: B4 VHH with D54S, S55N, E100T, E104H, Y108G, Y109A, A110W, S111D, S112Y

Tests used:
[1] = biological target: T1, SARS-CoV-2 S-RBD with Avi-tag and deca-His tag (residues 330-531) (SARS-CoV-2, UniProt P0DTC2 330-531); assay: BLI
[2] = biological target: T1, SARS-CoV-2 S-RBD with Avi-tag and …; assay: BLI; remark: listed apart in the source

Row | Binder | koff [1] [s⁻¹] | Kd [2] [nM]
1 | B1 | 0.0064 | 23.3
2 | B2 | 0.0097 | 
3 | B3 | 0.0014 | 14.5
4 | B4 | 0.0096 | 47.5
5 | B5 | 0.0032 | 22.8
